Measured values from patent US12529705 (dated 2026).

Target: T1, full-length protein LRP8 expressed in N2A cells transfected with a cDNA coding for LRP8 (Origene, Cat. No. … (human, UniProt Q14114 33-963))
T1 construct: Tested as a lysate of transfected N2A cells in SDS-PAGE and Western blot, not on intact cells; also called LRP8-FL; APOER2
T1 sequence: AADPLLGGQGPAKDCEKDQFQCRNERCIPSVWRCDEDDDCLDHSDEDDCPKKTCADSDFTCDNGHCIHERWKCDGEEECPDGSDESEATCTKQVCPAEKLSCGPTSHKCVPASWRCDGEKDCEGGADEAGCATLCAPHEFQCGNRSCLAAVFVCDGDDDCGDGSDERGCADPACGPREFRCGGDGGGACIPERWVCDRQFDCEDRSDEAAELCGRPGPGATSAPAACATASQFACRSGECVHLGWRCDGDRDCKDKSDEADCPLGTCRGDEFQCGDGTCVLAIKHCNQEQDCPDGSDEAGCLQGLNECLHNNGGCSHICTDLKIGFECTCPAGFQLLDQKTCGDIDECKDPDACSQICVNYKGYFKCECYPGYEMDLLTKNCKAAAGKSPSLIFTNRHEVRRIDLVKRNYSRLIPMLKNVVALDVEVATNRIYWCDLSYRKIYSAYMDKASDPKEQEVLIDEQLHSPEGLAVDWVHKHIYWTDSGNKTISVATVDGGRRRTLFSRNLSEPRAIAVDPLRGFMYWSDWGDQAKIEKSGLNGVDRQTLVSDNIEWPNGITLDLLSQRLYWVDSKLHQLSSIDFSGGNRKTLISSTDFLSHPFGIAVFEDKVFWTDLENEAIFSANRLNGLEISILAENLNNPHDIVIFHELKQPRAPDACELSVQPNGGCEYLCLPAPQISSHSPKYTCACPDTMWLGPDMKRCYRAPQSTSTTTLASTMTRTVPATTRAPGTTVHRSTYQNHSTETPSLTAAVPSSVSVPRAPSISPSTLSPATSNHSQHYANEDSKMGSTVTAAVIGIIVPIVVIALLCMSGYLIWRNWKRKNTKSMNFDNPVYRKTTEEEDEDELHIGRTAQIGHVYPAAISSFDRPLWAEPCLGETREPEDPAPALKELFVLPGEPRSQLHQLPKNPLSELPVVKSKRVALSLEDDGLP
Assay: Western blot, lysate of LRP8-transfected N2A cells, antibody at 1 µg/ml
From the text: The two lines of hybridomas described above develop antibodies that recognize both the entire protein LRP8 and its different C-terminal fragments. […] I.D. 5 and 9 with a cysteine at the C-terminus are able to produce antibodies that recognize both the protein LRP8 as such, and the fragments of 18-25 kDa, which are substrates of γ-secretase and different shorter fragments of 8-16 kDa, collectively defined as LICDs-derived intracellular domain LRP8, similar to the AICDs fragments derived from the cleavage of AβPP by γ-secretase or by other proteases such as those previously specified. The polyclonal antibodies (rabbit) GS1 and GS2 were made using SEQ I.D. 5 and SEQ I.D. 9, respectively. […] In lane 8 there is a negative control whereas in lane 9 the hybridization was performed using a commercial antibody vs LRP8 (Sigma Aldrich Cat No. SAB1306331) as a positive control. All the antibodies were used at the final concentration of 1 µg/ml. It is therefore clear that both the polyclonal antibodies and the antibodies of clones of hybridomas according to the present invention are able to identify not only the full-length protein LRP8 and the fragments from 18-25 kDa, but also advantageously the fragments 8-16 kDa, as indicated by the boxes in FIG. 3. […]

B1: monoclonal antibody of hybridoma 25F7F1 (antibody, V domains shown)
VH: EVQLQQSGPVLVKPGASVKMSCKASGYKFTDHFMNWVKKNHGKSLEWIGVINPYNGGTRLNPKFKGKATLTVDKSSSTVYMELNSLTFEDSAVYYCARETIDLAWFAYWGQGTLVTVSA
VL: DVLMTQTPPSLPVTLGDQASISCRSSQSIVYSNGKTYLEWYLQKPGQSPKLLMYKVSNRFSGVPDRFSGSGSGTDFTLKISSVEAEDLGIYYCFQGSHVPLTFGAGTKLELK
notes: Mouse (BALB/c) hybridoma monoclonal; also called antibody produced by 25F7F1 mouse hybridomas
binding result: binds
